Assay: yeast display, Sf9 membrane polyspecificity reagent, FACS + sequencing; frameworks hold sequencing errors
In short: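 Using colony PCR, genes from sorted yeast display clones were amplified, then sequenced on MiSeq at 2 × 250 and filtered by CDR length. The clones had been stained with 10% biotinylated, detergent-solubilized Sf9 membrane reagent for 1 hour at 4 °C and sorted by FACS into low and high (top ~1%) gates on anti-HA and streptavidin fluorescence. Polyreactivity labels come from the gate of origin.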

Sequence: QVQLVESGGGLVQAGGSLRLSCAASGIIFSGYAMGWYRQAPGKERELVAVISSSGGGTYYADSVKGRFTISRDKAKNTVYLQMNSLIPEDTAVYYCAARGREAIHGYWGQGTQVTLSS
- polyreactivity (PSR sort gate): high polyreactivity

Sequence: QVQLVESGGGLVQAGGSLRLSCAASGSIFFDNAMGWYRQAPGKERELVAAIDSSGGSTYYADSVKGRFTISRDNAKNTVYLQMNSLKPEDTAVYYCAREQYVPSPYSFFDEFEYWGQGTQVTVSS
- polyreactivity (PSR sort gate): low polyreactivity

Sequence: QVQLVESGGDLVQAGGSLRLSCAASGSIFYINAMGWYRQAPGKERELVASISYSGTSTYYADSVKGRFTISRDNAKNTVYLQMNSLKPEDTAVYYCNAEDTPGAGDGYWGQGTQVTVSS
- polyreactivity (PSR sort gate): low polyreactivity

Sequence: QVQLVESGGGLVQAGGSLRLSCAASGSIFGIYVMGWYRQAPGKERELVAAISDGGSTYYADSVKGRFTISRDNAKNTVYLQMNSLKPEDTAVYYCAAEVHGWYSYYYWGQGTQVTVSS
- polyreactivity (PSR sort gate): high polyreactivity

Sequence: QVQLVESGGGLVQAGGSLRLSCAASGLTISRYAMGWYRQAPGKEREFVASISISSVDTYYADSVKGRFTISRDNAKNTVYLQMNSLKPEDTAVYYCAAAGRVGVTRYYSWGQGTQVTVSS
- polyreactivity (PSR sort gate): high polyreactivity

Sequence: QVQLVESGGGLVQAGGSLRLSCAASGSTFVKNVMGWYRQAPGKERELVAGITRGGSTYYADSVKGRFTISRDNAKNTGSLQMNSLKPEDTAVYYCANRYAWDRDYWGQGTQVTVSS
- polyreactivity (PSR sort gate): high polyreactivity

Sequence: QVQLVESGGGLVQAGGSLRLSCAASGSTGWYDRGWYRQAPGKERELVASISSGDSTNYADSVKGRFTISRDNAKNTVYLQMNSLKPEDTAVYYCAADFNVGFVWGDDYDYWGQGTQVTVSS
- polyreactivity (PSR sort gate): low polyreactivity

Sequence: QVQLVESGVGLVQAGGSLRLSCAASGRTFGVYAMGWYRQAPGKESTYYADSVKGRFTISRDNAKNTVYLQMNSLKPEDTAVYYCNARGGFGYITMDYWGQGTQVTVSS
- polyreactivity (PSR sort gate): low polyreactivity

Sequence: QLQLVESGGGLVQAGGSLRLSCAASGFTFSYYAKGWYRQAPGKERELVAAISINGGRTYYADSVKGRFTISRDNAKNTVYLQMNSLKPEDTAVYYCNAVSYAYTVRMDYWGQGTQVTVSS
- polyreactivity (PSR sort gate): high polyreactivity

Sequence: QVQLVESGGGLVQAGGSLRLSCAASGRILTSNAMGWYRQAPGKERELVAAISWSGGSTYYADSVKGRFTISRDNAKNTVYLQMNILKPEDTAVYYCAAPLYWVDDFESGWRYYYWGQGTQVTVSS
- polyreactivity (PSR sort gate): low polyreactivity

Sequence: QVQLVESGGGLVQAGGSLRLSCAASGSKFKRNAMVWYRQAPGKERELVASISSGGSTHYADSVNGRFTISRDNSKNTVYLEMNSLKPEDTAVYYCAATSIRWSVGSFRRDYWGQGTQVTVSS
- polyreactivity (PSR sort gate): low polyreactivity

Sequence: QVQLVESGGGLVQAGCSLRLSCAASGSTLDGNAMGWYRQPPGKERELVAAISVSGGTTYYADSVKGRFTISRDNAKNNVYLQMNSLKREDTAVYYCSTEWRPRYYGTEPFDSWGQGTQVTVSS
- polyreactivity (PSR sort gate): high polyreactivity

Sequence: QVQLVESGGGLVQAGGSLRLSCAASGSTFQFNFMGWYRQAPGKERELVAAITSGASTYYADSVKGRFTISRDNAMNTVYLQMNSLEPEDTAVYYCAVDYSFRYDYVQRYYYLGQGTQVTVSS
- polyreactivity (PSR sort gate): high polyreactivity

Sequence: QVQLVESGGGLVQAGGRLRLSCAASGRTFYGYAMGWYRQAPGKEREMVAAITQRGVSTYADSVKGRFTISRDNAKNTVYLQMNSLKQEDTAVYYCAADQIERFRDQTWDFDYWGQGTQVTVSS
- polyreactivity (PSR sort gate): low polyreactivity

Sequence: QVQLVESGGGLVQAGGSLRLSCAASGLTFYLNAMGWYRQAPGKERELVAGISYTGGSTYYADSVKGRFTISRDNAKNTVYLQMNSLKPEDTAVYYCARDNFYYGVWDYGYWGQGTQVTVSS
- polyreactivity (PSR sort gate): low polyreactivity

Sequence: QVQLVESGGGLVQAGGSLRLSCAASGRTCRHNAMGWYRQAPGTERELVAAISSSGTNTHYADSVKGRFTISRDNAKNTVYLQMNSLKPEDTAVYYCAADRWGARRKQYHENGYWAQGTQVTVSS
- polyreactivity (PSR sort gate): high polyreactivity

Sequence: QVQLVESGGGLVQAGGSLRLSCAASGRTFGYYAMGWYRQAPGKERELVAAINSRGGSTYYADSVKGRFTISRDNAKNTVYLQMNSLKPEDTAVYYCAVVRWRHYIFATYDYWGQGTQVTVSS
- polyreactivity (PSR sort gate): high polyreactivity

Sequence: QVQLVESGGGLVQAGGSLRLSCAASGRIFRYNAMGWYRQAPGKERELVATISRGGGSTYYADSVKGRFTISLDNAKNTVYLQMNSLKPEDTAVYYCATRYYQDIVGYSRYDYWGQGTQVTVSS
- polyreactivity (PSR sort gate): high polyreactivity

Sequence: QVQLVESGGGLVQAGGSLRLSCAASGSTFWKYAMGWYRQAPGKERELVARISRNGGSTYYADSVKGRFTISRDNAKNTVYLQMNSLKPEDTAVYYCATAYVHYVYKYDYWGQGTQVTVSS
- polyreactivity (PSR sort gate): high polyreactivity

Sequence: QVQLQECGGGLVQAGGSLRLSCAASGNIFDAYIMGWYRQAPGKERELVASVTDGGSTNYADSVKGRFTISRDNAKNTVYLQMNSLKPEDTAVYYCAAIVYPDILTYFDYDYDYFYWGQGTQVTVGS
- polyreactivity (PSR sort gate): low polyreactivity

Sequence: QVQLVESGGGLVQAGGSLRISCAASGLIFGINAMGWYIQAPGKERELVATITSGGGTNYADSVKGRFTISRDNAKNTVYLQMNSLKPEYTAVYFCALDSASDTIYDYWGQGTQGTVSS
- polyreactivity (PSR sort gate): low polyreactivity

Sequence: QVQLVESGGGLVQAGGSLRLSCAASGFIFGVYAMGWYRQAPGKERELVARITYGGGSTYYADSVKGRFTISRDNAKNTVYLQMNSLKPEDTAVYYCAAASWSYPYYYWGQGTQVTVSS
- polyreactivity (PSR sort gate): high polyreactivity

Sequence: QEQHVESGGGLVQAGGSLRLSCAATGLIIYYYAMGWYRQAPGKEMEFVAAISTSGSRTYYADSVKGRFTISRDNAKNTVSLQMNSLKPEDTAVYYCAAEPGRSRYAWGYSYPYDYWGQGTQVTVSS
- polyreactivity (PSR sort gate): high polyreactivity

Sequence: QVQLVESGGGLVQAGGSLRLSCAASGRTFNHYAMGWYSQAPGKVRELVAGITISGGSTYYADSVKGRFTISRDNAKNTVYLQMNSLKPEDTPVYYCKAVYEYYRQSKGNMDYWGQGTQGTVSS
- polyreactivity (PSR sort gate): low polyreactivity

Sequence: QVQLVESGGGLVQAGGSLRLSCAASGRIFYYYTMGWYRQAPGKEREVVAAITKGDDDTSYADSVKGRFTISRDNAKNTVYVQMNSLKPEDTAVYYCAVEIVLVPFVVGYDYWGQGTQVTVSS
- polyreactivity (PSR sort gate): low polyreactivity

Sequence: QVQLVESGGGLVQAGGSLRLSCAASGSIFRPYAMGWYRQAPGKEREFVAAITYGGGNTYYADSVKGRFTISRDNAKNTFYLQMNILKPEDTAVYYCNKLSRGFSPKYDYWGQGTQVTVSS
- polyreactivity (PSR sort gate): high polyreactivity

Sequence: QVQLVESGGGLDQAGGSLPLSCAASGRTFRYYDRGSYRQAPGKERELVARISISGAGTYYADSVKGRFTISRDNAKNTVYFEMNSLKPEDTAVYYCAADLFWWQKTISGGDYWGQGTQVNVSS
- polyreactivity (PSR sort gate): low polyreactivity

Sequence: QVQLVESGGGLVQAGGSLRLSCAAYGRTFWNYAMGWYRQAPGKERELVAAISSSGGTTYYADSVKGRFTISRDNAKNTVYLQMNSLKPEDTAVYYCAATGVSKPQRSFVYWGQGTQVTVSS
- polyreactivity (PSR sort gate): low polyreactivity

Sequence: QVQLVESAAGLVQAGGSLRLTCAASGLTFTTYAKGWYTQSPRKDRELVAAISRRGSRTYYADSVKGRFTISRDNAKNTVYLQMQSLKPDDTAVYYCNALTGSFKTDSFDYWGQGTQVTVSS
- polyreactivity (PSR sort gate): high polyreactivity

Sequence: QVQLVETGGGLVQAGGSLRLSCAASGFTFGANVMGWYRPAPGKESELVAGITRSGDSTYYADSVKGRFTISRDNAKNTVYLQMNILKPEDTAVYYCAADVYDGEYILDYDYWGQGTQVTVSS
- polyreactivity (PSR sort gate): low polyreactivity

Sequence: QFQLVESGGGLVQAGGSLRLSCAASGFIFSFYAMGWYRQAPGKERELVARINWTGGSTYYADSVKGRFTISRDNAKNSVYLQMNSLKPEDTAVYYCARPVRRIIGVTDEYWGQGTQVTVSS
- polyreactivity (PSR sort gate): low polyreactivity

Sequence: QDQHVESGGGLVQAGGSLRLSFAASGRIFRYYAMRWYRQAPGKDRELVAAIRWTAGSTYYADSVKVRFTISRDNAKNTVYLQMNSLKPEDPAVYYCATDVWKYGRYEYWVQGTQVTVSS
- polyreactivity (PSR sort gate): low polyreactivity

Sequence: QVQLVESGGGLVQAGGSLRLSCAASGRTFGYYGMGWYRQAPGKEREFFAAITRSGGSTYYADSVKGRFTISRDNAKNTVYLQMNSLKPEDTAVYYCAAAHLFTRSRPYDYWGQGTQVTVSS
- polyreactivity (PSR sort gate): high polyreactivity

Sequence: QVQLVESGGGLVQAGGSLRLSCAASGLTFYNYAMGWYIQAPGKERELVATITSSGARTYYADSVKGRFTISRDNAKNTVYLQMNSLTPEDTAVYYCAKQAYDQSPYNYWGQGTQVTVSS
- polyreactivity (PSR sort gate): high polyreactivity

Sequence: QVQLVESGGGLVQAGGSLRLSCAASGSTFPYNTMGWYRQAPGKERDFVAAITGDGGTTYYADSVKGRFTISRDNAQNTVYLQMNSLKQEDTAVYYCAVPYPAEGYGGDYWGQGSQVTVSS
- polyreactivity (PSR sort gate): low polyreactivity

Sequence: QDQLVESGGGLVQAGGSLRLSCAASGRIFEGNAMGWYRQAPGKEREFLAAISDGGSTNYADSVKGRFTISRDNAKNTVYLQLNSLKPEETAVYYCNVGANVYMLYFPSRGGVYDYGYWGQGTQVNVSS
- polyreactivity (PSR sort gate): low polyreactivity

Sequence: QVQLVESGGGLVQAGGSLRLSCAASGSIFYLYAMGWYRQAPGKERELVASISWGDSSTYYADSVKGRFTISRDNAKNTVYLQMNSLKPEDTAVYYCAADEYRQYALYDYWGQGTQVTVSS
- polyreactivity (PSR sort gate): low polyreactivity

Sequence: QVQLVESGGGLVQAGGSLRLSCAASGSIFGGYAMGWYRQAPGKERELVARIRGSTGSTYYADSVKGRFTISRDNAKNTVYFQMNSLKPEDTAVYYCNARYKYYRGSGMDSWGQGTQVTVSS
- polyreactivity (PSR sort gate): high polyreactivity

Sequence: QVQLVESGGGLVQAGGSLRLSCAASRFIFQPYAMGWYRQAPGKERELVAAITSRGGRTYYADSVKGRFTISRDNAKNTVYLKMNSLKPEDSAVYYCNADIYASEYYYWGQGTQVTVSS
- polyreactivity (PSR sort gate): low polyreactivity

Sequence: QVQLVESGGGLVQAGGSLRLSCAASGRILWSYAMGWYRQAPGKEREFVAAISRGGGTTYYADSVKGRFTISRDNAKNTVYLQMNSLKPEDTAVYYCNAGDHIRKRYGISATWGYGYGYWGQGTQVTVSS
- polyreactivity (PSR sort gate): high polyreactivity

Sequence: QVQLVESGGGLVQAGGSLRLSCAASGITFWGYAMGWYRQAPGKEREFVARINWSGGRTYYAESVKGRFTISRDNAKNTVYLQMNSLKPEDTAVYYCAATSLIYGYRTYDYWGQGTQVTVSS
- polyreactivity (PSR sort gate): high polyreactivity

Sequence: QVQLVESGGGLVQAGGSLRLSCAASGFIFAEYAMGWYRQATGKERELDAGITSGGSTSYADSVKGRFTISRDNAKNTVYLQMTSLKPDATAVYYCAATWYYHYNDWKHWYEYGYWGLGTQVTVSS
- polyreactivity (PSR sort gate): low polyreactivity

Sequence: QVQLVESGGGLVQAGGSLRLSCAASGRIFSRYTMGWYRQAPGKERELVAAISYSGGRTYYADSVKGRFTISRDNAKNTVYLQMYSLKPEDTAVYYCAAPRSVVGAYGFYYWGQGTQVTVSS
- polyreactivity (PSR sort gate): high polyreactivity

Source: the nanobody polyreactivity screen of Harvey et al. (2022)
